Measured values taken from patent US20250101091A1 (Eli Lilly, published 2025).

Assays:
[1] = biological target: T1, Cleaved rat epiregulin (rat, UniProt Q9Z0L5 56-101); assay: cell-based or functional assay
[2] = biological target: T1, Cleaved rat epiregulin; assay: MSD-SET solution equilibrium titration, 37 C, pH 6.0
[3] = biological target: T1, Cleaved rat epiregulin; assay: MSD-SET solution equilibrium titration, 37 C, pH 7.4
[4] = biological target: T2, EGF (human, UniProt P01133 971-1023); assay: ELISA: biotinylated ligand (20 nM) captured on neutravidin plate, antibody titrated 1:3, anti-human kappa-AP detection, OD405 [panel A]
T2 construct: Bought reagent, biotinylated in the ELISA; also called epidermal growth factor

[5] = biological target: T3, HB-EGF (human, UniProt Q99075 63-148); assay: as above
T3 construct: Bought reagent, biotinylated in the ELISA

[6] = biological target: T4, TGFα (human, UniProt P01135 40-89); assay: as above
T4 construct: Bought reagent, biotinylated in the ELISA; also called TGFA; transforming growth factor alpha

[7] = biological target: T5, human Epigen (human, UniProt Q6UW88 53-104, limits assumed); assay: as above
T5 construct: Bought reagent, biotinylated in the ELISA; also called EPGN

[8] = biological target: T6, Amphiregulin (human, UniProt P15514 101-198); assay: as above
T6 construct: Bought reagent, biotinylated in the ELISA; also called AREG
T6 sequence (looked up): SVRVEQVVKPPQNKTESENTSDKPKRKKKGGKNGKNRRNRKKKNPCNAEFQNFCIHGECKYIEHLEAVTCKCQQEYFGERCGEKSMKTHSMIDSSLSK

[9] = biological target: T7, Betacellulin (human, UniProt P35070 32-111); assay: as above
T7 construct: Bought reagent, biotinylated in the ELISA; also called BTC
T7 sequence (looked up): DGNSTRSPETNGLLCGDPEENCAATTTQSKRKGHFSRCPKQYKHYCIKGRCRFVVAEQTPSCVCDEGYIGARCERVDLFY

B1: Antibody 1 (antibody, human IgG4 S228P, kappa, F234A L235A, V domains shown)
VH: QVQLQESGPGLVKPSETLSLTCTVSGGSISSYYWSWIRQPAGKGLEWIGRIYPSGNTNYNPSLKSRVTISVDTSKNQFSLKLSSVTAADTAVYYCARGGLVMDVWGQGTLVTVSS
VL: EIVLTQSPGTLSLSPGERATLSCRASQSVEFSYLAWYQQKPGQAPRLLIYGASSRATGIPDRFSGSGSGTDFTLTISRLEPEDFAVYYCHQYGTNPFTFGQGTKVEIKR
notes: Fully human IgG4 (S228P, F234A/L235A by EU index, C-terminal Lys deleted), kappa light chain
With B1 as the binder, how does the “IC50, neutralization of epiregulin induced luciferase reporter activity in C166-AP1-Luciferase cells” value [1] read?
Its value is 2.5 nM.

And the Kd [2]?
The Kd was 0.286 nM.

What about the Kd [3] of the same binder?
Its Kd is 0.0302 nM.

Does B1 bind [4]?
Result: no binding (tested: 10 ug/mL)

Does B1 bind [5]?
Result: no binding (tested: 10 ug/mL)

Does B1 bind [6]?
Result: no binding (tested: 10 ug/mL)

Does B1 bind [7]?
Result: no binding (tested: 10 ug/mL)

Does B1 bind [8]?
Result: no binding (tested: 10 ug/mL)

Does B1 bind [9]?
Result: no binding (tested: 10 ug/mL)
